Results on one protein are retold here after publication PMC9507012 (Blood, 2022).

Several values for one entry are separate records, joined by “and”; a condition that tells them apart may be missing. Identical values can stand only once.

For orientation: stoichiometry N means a count of units in the complex or per binding partner.

The series concerns the molecule itself. Kind of series: crystal structure.

B1: MEF2D_(2-95) (N-terminal residues 2-95 of human MEF2D) (domain or fragment, UniProt Q14814 2-95, looked up)
chain: GRKKIQIQRITDERNRQVTFTKRKFGLMKKAYELSVLCDCEIALIIFNHSNKLFQYASTDMDKVLLKYTEYNEPHESRTNADIIETLRKKGFNG
B1: the “stoichiometry N” value is 2 and 4.
